Source: IntAct's records for PubMed 15214843

B1: Septin-5 (Homo sapiens), Q99719 (parent)
chain: MSTGLRYKSKLATPEDKQDIDKQYVGFATLPNQVHRKSVKKGFDFTLMVAGESGLGKSTLVHSLFLTDLYKDRKLLSAEERISQTVEILKHTVDIEEKGVKLKLTIVDTPGFGDAVNNTECWKPITDYVDQQFEQYFRDESGLNRKNIQDNRVHCCLYFISPFGHGLRPVDVGFMKALHEKVNIVPLIAKADCLVPSEIRKLKERIREEIDKFGIHVYQFPECDSDEDEDFKQQDRELKESAPFAVIGSNTVVEAKGQRVRGRLYPWGIVEVENQAHCDFVKLRNMLIRTHMHDLKDVTCDVHYENYRAHCIQQMTSKLTQDSRMESPIPILPLPTPDAETEKLIRMKDEELRRMQEMLQRMKQQMQDQ
partner: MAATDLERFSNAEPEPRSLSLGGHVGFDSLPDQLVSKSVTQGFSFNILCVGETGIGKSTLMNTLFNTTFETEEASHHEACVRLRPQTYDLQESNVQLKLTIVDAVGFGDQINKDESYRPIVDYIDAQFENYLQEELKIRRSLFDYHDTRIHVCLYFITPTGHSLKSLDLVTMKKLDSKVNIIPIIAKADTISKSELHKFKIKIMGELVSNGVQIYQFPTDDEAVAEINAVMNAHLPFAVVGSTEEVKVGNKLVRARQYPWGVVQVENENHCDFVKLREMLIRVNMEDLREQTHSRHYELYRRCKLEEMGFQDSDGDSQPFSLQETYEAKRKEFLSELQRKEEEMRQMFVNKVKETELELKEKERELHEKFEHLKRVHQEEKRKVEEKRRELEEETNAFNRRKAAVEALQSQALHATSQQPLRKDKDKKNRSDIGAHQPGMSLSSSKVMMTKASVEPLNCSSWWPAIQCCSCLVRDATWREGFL

Variants of: B1
Settings: with sept8_human SEPTIN8, Q92599

| Variant | effect of a mutation on the interaction |
| --- | --- |
| MSTGLRYKSKLATPEDKQDIDKQYVGFATLPNQVHRKAVKKGFDFTLMVAGESGLGKSTLVHSLFLTDLYKDRKLLSAEERISQTVEILKHTVDIEEKGVKLKLTIVDTPGFGDAVNNTECWKPITDYVDQQFEQYFRDESGLNRKNIQDNRVHCCLYFISPFGHGLRPVDVGFMKALHEKVNIVPLIAKADCLVPSEIRKLKERIREEIDKFGIHVYQFPECDSDEDEDFKQQDRELKESAPFAVIGSNTVVEAKGQRVRGRLYPWGIVEVENQAHCDFVKLRNMLIRTHMHDLKDVTCDVHYENYRAHCIQQMTSKLTQDSRMESPIPILPLPTPDAETEKLIRMKDEELRRMQEMLQRMKQQMQDQ [S38A] | with no effect |
| MSTGLRYKSKLATPEDKQDIDKQYVGFATLPNQVHRKSVKKGFDFTLMVAGESGLGKNTLVHSLFLTDLYKDRKLLSAEERISQTVEILKHTVDIEEKGVKLKLTIVDTPGFGDAVNNTECWKPITDYVDQQFEQYFRDESGLNRKNIQDNRVHCCLYFISPFGHGLRPVDVGFMKALHEKVNIVPLIAKADCLVPSEIRKLKERIREEIDKFGIHVYQFPECDSDEDEDFKQQDRELKESAPFAVIGSNTVVEAKGQRVRGRLYPWGIVEVENQAHCDFVKLRNMLIRTHMHDLKDVTCDVHYENYRAHCIQQMTSKLTQDSRMESPIPILPLPTPDAETEKLIRMKDEELRRMQEMLQRMKQQMQDQ [S58N] | disrupting interaction strength |
| MSTGLRYKSKLATPEDKQDIDKQYVGFATLPNQVHRKSVAAGFDFTLMVAGESGLGKSTLVHSLFLTDLYKDRKLLSAEERISQTVEILKHTVDIEEKGVKLKLTIVDTPGFGDAVNNTECWKPITDYVDQQFEQYFRDESGLNRKNIQDNRVHCCLYFISPFGHGLRPVDVGFMKALHEKVNIVPLIAKADCLVPSEIRKLKERIREEIDKFGIHVYQFPECDSDEDEDFKQQDRELKESAPFAVIGSNTVVEAKGQRVRGRLYPWGIVEVENQAHCDFVKLRNMLIRTHMHDLKDVTCDVHYENYRAHCIQQMTSKLTQDSRMESPIPILPLPTPDAETEKLIRMKDEELRRMQEMLQRMKQQMQDQ [K40A;K41A] | with no effect |
